This passage reports stoichiometry N results from paper PMC8163826.

Where two headings read alike, the source gives them in different places.

In assay [1] the target is RSV CA protein (Rous sarcoma virus). Put plainly: cryo-EM structure; single-particle cryo-EM of T = 1 and T = 3 icosahedral CLPs; 500 µM CA assembled in 1 M NaPO4 at pH 8, diluted 1:4.
Assay [2] shares this target. Described as above. This is another data set of the same source.
Assay [3] has as its target RSV CASPNC (Rous sarcoma virus). Put plainly: cryo-EM structure; cryo-electron tomography and subtomogram averaging of CASPNC CLPs (regular tubes and polyhedrons) assembled in the presence of 100 µM IP6.
Assay [4] shares this target. Described as above. This is another data set of the same source.

As for RSV CA protein (natural protein), the stoichiometry N came out at 6 in assay [1] and 5 in assay [2].
On to RSV CASPNC (domain or fragment), for which the stoichiometry N in assay [3] worked out at 6; in assay [4], 5.
